The values that follow come from paper PMC8531446, “Light-triggered and phosphorylation-dependent 14-3-3 association with NON-PHOTOTROPIC HYPOCOTYL 3 is required for hypocotyl phototropism” (Nature Communications, 2021).

Assay [1] concerns the target T1, GFP:NPH3 from transgenic Arabidopsis nph3-7 (Arabidopsis thaliana, UniProt Q9FMF5 1-746, phosphoserine at 744 upon blue light irradiation (α-pS744 antibody); dephosphorylated on prolonged irradiation or re-transfer to darkness).
T1 construct: NPH3, Arabidopsis thaliana; cloned into pH7WGF2; S746 is the last residue; source: Arabidopsis nph3-7 seedlings, stably expressed (35S promoter), anti-GFP immunoprecipitate (GFP-Trap beads); not shown: GFP, N-terminal, kept
T1 sequence (looked up): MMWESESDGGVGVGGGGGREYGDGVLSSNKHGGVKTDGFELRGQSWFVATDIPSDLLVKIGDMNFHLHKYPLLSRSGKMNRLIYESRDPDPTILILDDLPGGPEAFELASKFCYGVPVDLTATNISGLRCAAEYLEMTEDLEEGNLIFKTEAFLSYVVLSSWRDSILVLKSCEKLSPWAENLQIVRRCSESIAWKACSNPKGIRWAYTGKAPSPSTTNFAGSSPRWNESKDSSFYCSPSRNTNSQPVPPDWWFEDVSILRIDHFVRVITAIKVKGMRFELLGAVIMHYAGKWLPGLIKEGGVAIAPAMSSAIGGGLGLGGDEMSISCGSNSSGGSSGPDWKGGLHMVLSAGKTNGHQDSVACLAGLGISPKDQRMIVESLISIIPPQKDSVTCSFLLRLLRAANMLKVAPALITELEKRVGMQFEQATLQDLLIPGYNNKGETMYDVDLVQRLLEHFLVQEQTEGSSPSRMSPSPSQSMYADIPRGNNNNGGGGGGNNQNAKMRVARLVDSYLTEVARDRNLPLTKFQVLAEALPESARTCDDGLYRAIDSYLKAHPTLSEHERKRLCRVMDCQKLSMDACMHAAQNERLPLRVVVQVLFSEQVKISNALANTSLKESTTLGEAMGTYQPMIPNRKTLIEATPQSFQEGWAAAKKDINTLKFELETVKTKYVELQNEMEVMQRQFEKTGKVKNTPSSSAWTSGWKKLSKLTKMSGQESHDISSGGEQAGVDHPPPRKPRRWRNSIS
The experiment in a line: far-Western, overlay or dot blot; anti-GFP immunoprecipitates from blue-light-treated N. benthamiana leaves (10 μmol m^-2 s^-1, 40 min) or Arabidopsis nph3-7 seedlings (1 μmol m^-2 s^-1) separated by SDS-PAGE, on nitrocellulose; overlaid with RGS(His)6-14-3-3 omega at 20 μg ml^-1 in 50 mM MOPS pH 6.5, 20% glycerol, 5 mM MgCl2, 2 mM DTT, overnight at 4 °C; anti-RGS(His)6 detection. The settings on record: both partners purified.

In assay [2] the target is T2, GFP:NPH3 from N. benthamiana (Arabidopsis thaliana, UniProt Q9FMF5 1-746, phosphoserine at 744 upon blue light irradiation only (α-pS744 antibody)).
T2 construct: NPH3, Arabidopsis thaliana; cloned into pH7WGF2; S746 is the last residue; source: N. benthamiana leaves, transiently transformed (35S promoter), anti-GFP immunoprecipitate (GFP-Trap beads); not shown: GFP, N-terminal, kept
T2 sequence (looked up): T1 sequence (looked up)
The assay is described as above. Conditions: both partners purified.

B1: RGS(His)6-tagged Arabidopsis 14-3-3 isoform omega (natural protein, UniProt Q01525 1-259, looked up)
chain: MASGREEFVYMAKLAEQAERYEEMVEFMEKVSAAVDGDELTVEERNLLSVAYKNVIGARRASWRIISSIEQKEESRGNDDHVTAIREYRSKIETELSGICDGILKLLDSRLIPAAASGDSKVFYLKMKGDYHRYLAEFKTGQERKDAAEHTLAAYKSAQDIANAELAPTHPIRLGLALNFSVFYYEILNSPDRACNLAKQAFDEAIAELDTLGEESYKDSTLIMQLLRDNLTLWTSDMQDDAADEIKEAAAPKPTEEQQ
notes: 14-3-3 isoform omega, Arabidopsis; cDNA in the expression vector pQE-30; also called purified recombinant 14-3-3 proteins; RGS(His)6-tagged 14-3-3; source: E. coli M15, purified (Ni2+-NTA agarose, native conditions)
B1: the binding result in assay [1] and in assay [2] was “binds” each time.
